Here are results for two molecules from publication PMC8881611, “A mechanism of origin licensing control through autoinhibition of S. cerevisiae ORC·DNA·Cdc6” (Nature Communications, 2022).

B1: S. cerevisiae Cdc6 (ScCdc6), full length (natural protein, UniProt P09119 1-513, looked up)
chain: MSAIPITPTKRIRRNLFDDAPATPPRPLKRKKLQFTDVTPESSPEKLQFGSQSIFLRTKALLQKSSELVNLNSSDGALPARTAEYEQVMNFLAKAISEHRSDSLYITGPPGTGKTAQLDMIIRQKFQSLPLSLSTPRSKDVLRHTNPNLQNLSWFELPDGRLESVAVTSINCISLGEPSSIFQKIFDSFQDLNGPTLQIKNMQHLQKFLEPYHKKTTFVVVLDEMDRLLHANTSETQSVRTILELFLLAKLPTVSFVLIGMANSLDMKDRFLSRLNLDRGLLPQTIVFQPYTAEQMYEIVIQKMSSLPTIIFQPMAIKFAAKKCAGNTGDLRKLFDVLRGSIEIYELEKRFLLSPTRGSLNSAQVPLTPTTSPVKKSYPEPQGKIGLNYIAKVFSKFVNNNSTRTRIAKLNIQQKLILCTIIQSLKLNSDATIDESFDHYIKAITKTDTLAPLQRNEFLEICTILETCGLVSIKKTKCKGKTKRFVDKIDVDLDMREFYDEMTKISILKPFLH
notes: Cdc6, S. cerevisiae, wild type; also called co-loader; source: High5 insect cells, baculovirus, purified as ScORC (HisTrap, amylose, TEV cleavage, HisTrap, Superdex 200); not shown: His6, N-terminal, cleaved; MBP, N-terminal, cleaved

Common to all, as to assay: cryo-EM structure; ScORC (2.5 uM), 84 bp ARS1 DNA (3 uM) and ScCdc6 (6.8 uM) reconstituted with 1 mM ATP, purified on Superose 6 in 25 mM HEPES-KOH pH 7.6, 250 mM potassium acetate, 10 mM magnesium acetate, 1 mM DTT, 0.2 mM ATP; not cross-linked; masked 3D classification
What all share (conditions): both partners purified

The target of experiment [1] is T1, S. cerevisiae Origin Recognition Complex (ScORC), full-length Orc1-6 (S. cerevisiae, UniProt P54784 1-914; P32833 1-620; P54790 1-616; P54791 1-529; P50874 1-479; P38826 …, mixture of unphosphorylated and phosphorylated Orc6, including established CDK sites (sites not given)).
T1 construct: Orc1, S. cerevisiae, wild type; Orc2, S. cerevisiae, wild type; Orc3, S. cerevisiae, wild type; Orc4, S. cerevisiae, wild type; Orc5, S. cerevisiae, wild type; Orc6, S. cerevisiae, wild type; also called initiator; source: High5 insect cells co-infected with baculoviruses, purified (HisTrap, amylose, TEV cleavage, HisTrap, Sephacryl S-400); not shown: His6, N-terminal, cleaved; MBP, N-terminal, …

The target in the next experiment is T2, S. cerevisiae Orc1 (S. cerevisiae, UniProt P54784 1-914).
T2 construct: Orc1, S. cerevisiae, wild type; Stood in the assays as a subunit of ScORC·DNA(·Cdc6); also called ScOrc1; source: High5 insect cells, co-expressed and purified as a subunit of ScORC; not shown: His6, N-terminal, cleaved
T2 sequence (looked up): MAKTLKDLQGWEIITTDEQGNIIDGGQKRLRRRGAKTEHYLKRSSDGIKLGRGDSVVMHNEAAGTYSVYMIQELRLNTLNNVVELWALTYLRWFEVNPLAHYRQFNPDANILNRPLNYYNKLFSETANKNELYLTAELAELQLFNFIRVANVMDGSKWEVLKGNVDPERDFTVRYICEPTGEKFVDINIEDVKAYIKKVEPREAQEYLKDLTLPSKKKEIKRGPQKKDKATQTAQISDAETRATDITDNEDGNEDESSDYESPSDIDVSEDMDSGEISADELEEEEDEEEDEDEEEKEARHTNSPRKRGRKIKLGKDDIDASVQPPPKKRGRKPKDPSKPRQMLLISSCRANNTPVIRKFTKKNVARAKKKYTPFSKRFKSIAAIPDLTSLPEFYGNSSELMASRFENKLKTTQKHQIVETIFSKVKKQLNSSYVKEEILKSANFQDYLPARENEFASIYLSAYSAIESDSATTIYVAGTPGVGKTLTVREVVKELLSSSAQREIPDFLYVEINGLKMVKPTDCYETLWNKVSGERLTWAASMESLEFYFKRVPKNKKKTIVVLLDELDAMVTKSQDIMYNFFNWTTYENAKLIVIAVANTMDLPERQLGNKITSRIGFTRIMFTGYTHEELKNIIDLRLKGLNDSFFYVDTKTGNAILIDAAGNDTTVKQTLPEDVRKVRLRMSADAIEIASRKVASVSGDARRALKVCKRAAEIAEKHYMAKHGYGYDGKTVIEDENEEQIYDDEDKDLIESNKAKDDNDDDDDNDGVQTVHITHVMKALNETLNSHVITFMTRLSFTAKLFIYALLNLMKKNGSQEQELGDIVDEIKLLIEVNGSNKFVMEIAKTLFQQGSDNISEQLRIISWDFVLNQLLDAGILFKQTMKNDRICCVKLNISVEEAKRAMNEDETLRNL

For experiment [2], the target named is B1.

T1 sequence (P32833 whole entry, chain 2 of 4): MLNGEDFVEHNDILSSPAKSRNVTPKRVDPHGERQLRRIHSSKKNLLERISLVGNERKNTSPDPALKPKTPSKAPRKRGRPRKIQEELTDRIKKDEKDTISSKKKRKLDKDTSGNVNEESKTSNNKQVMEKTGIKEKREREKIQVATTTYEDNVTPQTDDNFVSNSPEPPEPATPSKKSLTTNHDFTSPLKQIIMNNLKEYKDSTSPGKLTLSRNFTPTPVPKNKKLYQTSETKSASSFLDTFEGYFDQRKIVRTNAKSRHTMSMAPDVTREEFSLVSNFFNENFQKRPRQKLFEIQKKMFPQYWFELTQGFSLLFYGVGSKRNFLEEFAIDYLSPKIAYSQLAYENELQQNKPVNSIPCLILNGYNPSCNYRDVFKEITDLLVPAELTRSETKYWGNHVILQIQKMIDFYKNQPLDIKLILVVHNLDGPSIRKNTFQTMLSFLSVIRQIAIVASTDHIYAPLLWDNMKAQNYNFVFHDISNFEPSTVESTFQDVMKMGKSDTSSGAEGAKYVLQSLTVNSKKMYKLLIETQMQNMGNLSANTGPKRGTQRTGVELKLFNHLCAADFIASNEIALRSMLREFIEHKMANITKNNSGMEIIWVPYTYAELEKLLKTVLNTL
T1 sequence (P54790 whole entry, chain 3 of 4): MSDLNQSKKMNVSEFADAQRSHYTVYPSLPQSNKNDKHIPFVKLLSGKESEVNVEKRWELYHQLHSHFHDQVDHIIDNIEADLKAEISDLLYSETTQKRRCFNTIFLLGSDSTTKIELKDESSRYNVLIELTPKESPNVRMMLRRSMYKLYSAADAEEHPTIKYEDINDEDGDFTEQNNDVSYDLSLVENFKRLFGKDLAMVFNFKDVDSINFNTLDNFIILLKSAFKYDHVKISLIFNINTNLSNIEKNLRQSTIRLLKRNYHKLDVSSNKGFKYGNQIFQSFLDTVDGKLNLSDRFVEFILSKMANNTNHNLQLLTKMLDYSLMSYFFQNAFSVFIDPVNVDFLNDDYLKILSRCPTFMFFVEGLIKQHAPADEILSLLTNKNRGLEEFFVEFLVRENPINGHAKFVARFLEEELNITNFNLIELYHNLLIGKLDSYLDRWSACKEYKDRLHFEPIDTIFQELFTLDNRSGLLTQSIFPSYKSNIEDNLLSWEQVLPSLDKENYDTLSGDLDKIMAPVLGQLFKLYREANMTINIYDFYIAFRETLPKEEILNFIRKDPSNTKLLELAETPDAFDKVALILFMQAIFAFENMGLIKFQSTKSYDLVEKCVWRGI
T1 sequence (P54791 whole entry, chain 4 of 4): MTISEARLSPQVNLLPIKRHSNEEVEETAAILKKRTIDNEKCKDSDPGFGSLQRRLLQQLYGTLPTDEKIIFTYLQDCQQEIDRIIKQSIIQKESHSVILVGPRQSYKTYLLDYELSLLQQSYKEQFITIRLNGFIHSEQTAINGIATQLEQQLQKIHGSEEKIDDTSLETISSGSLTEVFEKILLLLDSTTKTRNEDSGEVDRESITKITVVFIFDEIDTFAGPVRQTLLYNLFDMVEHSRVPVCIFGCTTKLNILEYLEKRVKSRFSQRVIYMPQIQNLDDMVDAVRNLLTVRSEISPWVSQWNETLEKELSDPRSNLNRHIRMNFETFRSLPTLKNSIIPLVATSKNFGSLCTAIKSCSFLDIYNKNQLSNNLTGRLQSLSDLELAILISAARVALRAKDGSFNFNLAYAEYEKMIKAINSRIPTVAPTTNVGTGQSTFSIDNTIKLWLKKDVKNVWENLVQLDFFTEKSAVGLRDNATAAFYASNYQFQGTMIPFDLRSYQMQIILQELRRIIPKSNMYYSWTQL
T1 sequence (P50874 whole entry, chain 5 of 4): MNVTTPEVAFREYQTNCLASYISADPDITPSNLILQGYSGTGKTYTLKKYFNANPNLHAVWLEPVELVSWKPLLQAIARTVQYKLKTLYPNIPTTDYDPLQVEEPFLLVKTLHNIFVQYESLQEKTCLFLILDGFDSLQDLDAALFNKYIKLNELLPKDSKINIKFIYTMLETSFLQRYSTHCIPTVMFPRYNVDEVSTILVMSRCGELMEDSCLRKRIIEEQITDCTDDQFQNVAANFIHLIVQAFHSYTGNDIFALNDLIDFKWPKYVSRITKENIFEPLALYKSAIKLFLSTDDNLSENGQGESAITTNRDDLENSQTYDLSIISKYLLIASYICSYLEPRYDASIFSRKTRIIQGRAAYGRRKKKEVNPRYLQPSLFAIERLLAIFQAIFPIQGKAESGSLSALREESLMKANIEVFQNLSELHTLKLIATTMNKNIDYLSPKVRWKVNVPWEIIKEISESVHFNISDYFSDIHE

Regarding B1, the binding result (in experiment [1]; with S. cerevisiae Orc1) was “binds” each time.

B2: S. cerevisiae Orc6 (natural protein, UniProt P38826 1-435, looked up)
chain: MSMQQVQHCVAEVLRLDPQEKPDWSSGYLKKLTNATSILYNTSLNKVMLKQDEEVARCHICAYIASQKMNEKHMPDLCYYIDSIPLEPKKAKHLMNLFRQSLSNSSPMKQFAWTPSPKKNKRSPVKNGGRFTSSDPKELRNQLFGTPTKVRKSQNNDSFVIPELPPMQTNESPSITRRKLAFEEDEDEDEEEPGNDGLSLKSHSNKSITGTRNVDSDEYENHESDPTSEEEPLGVQESRSGRTKQNKAVGKPQSELKTAKALRKRGRIPNSLLVKKYCKMTTEEIIRLCNDFELPREVAYKIVDEYNINASRLVCPWQLVCGLVLNCTFIVFNERRRKDPRIDHFIVSKMCSLMLTSKVDDVIECVKLVKELIIGEKWFRDLQIRYDDFDGIRYDEIIFRKLGSMLQTTNILVTDDQYNIWKKRIEMDLALTEPL
modifications: mixture of unphosphorylated and phosphorylated Orc6, including established CDK sites (sites not given)
notes: Orc6, S. cerevisiae, wild type; Stood in the assays as a subunit of ScORC·DNA(·Cdc6); also called ScOrc6; holds Orc6-CBN (N-terminal cyclin box fold) and Orc6-CBC (C-terminal cyclin box fold); source: High5 insect cells, co-expressed and purified as a subunit of ScORC
For the molecule B2, the binding result in experiment [2] is listed as “binds”.
